Data as given in the domain aggregation screens of Martell et al. (2025).

Assay: soluble fraction after stress (log2 fold change); higher = more stays soluble; pooled small domains, quantitative proteomics
Conditions: stress: 75 degC
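Note: 20 min heating vs room temperature control held 20 min.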

Going from “HMEGLESVVPDLRGKSLKSAAIAAGLSGFALSPEGSGIVYKQSPAPGGRYLKGTLIAVWLRT” to “HMEGMQATVTQITDEGITVRYVMNGQMVTRTLTSDEVAFVNRGQAVSDLAGAYRVGQTVWIY”, the “soluble fraction (log2)” value rises from -1.95 to -0.446.

Going from “HMEGNAFASTGDPEADILDITAVHPMRRDAVEELLARSGAEWSLVEGMLRDGKITMAPWEGEEFFIRS” to “HMEGNWGLWAKVPNRFAALTTDKDSALRRFKSKEDGEAWMASHGLKPERFDVLEIPADYKPA”, the “soluble fraction (log2)” value rises from 0.105 to 0.435.

Going from “HMEGRHFRILYILLNNERVTAPELAEEFGVSVRTIYRDIDTMSAAGIPIYMQGGRKGGIYLLEGY” to “HMEGSRASMDGQVPGKTSYLEWLARQPAQRQDQVLGAERGRLFRAGEIDLADMFTDKGEWISLERLKQLS”, the “soluble fraction (log2)” value rises from -1.11 to 0.309.

Going from “HMEGVSNLIVSVTRVKVTVDLSQAKVYLSIFPSEQAAFYLNALQQNRFQLKHDLSQLLKNQLRRIPTLQF” to “HMEHDYGLSGREREVLELMVQGLVKKEIADRLALSYHTVDNHLRSIYAKLQVHTRGGAVAKALSEHLVPP”, the “soluble fraction (log2)” value falls from 0.296 to -0.0631.

Going from “HMEHGQWLSEAQGASLAADWLARRRGVLPLNARRHLSGLSDQIARQIEGGLSREAGLYTAHEMMESLDP” to “HMEHNDPEVERTMFQGLEALKLQLFEKAFGHFSLLIKLAPDYAEAWNKRATVLYLMGRFKESESDVMRTLE”, the “soluble fraction (log2)” value rises from -0.427 to 0.16.

Going from “HMEHQLLHMEKTIFEEIADDYPQLNHTKIRNVLAAFLFTNDDVFKRIADLSGGERGRVSLAKLMLSDA” to “HMEHTPYLTEREADVVRLLVSGLDTAQIAQRLGIKTATVTAHKKHIFLKIGVRNTTQLVAWALIR”, the “soluble fraction (log2)” value falls from -0.159 to -2.3.

Going from “HMEIELHNLALNIKEFRKKNKLSQAELAEKLGVARTTIGYYERAEVEPNIYTLVQLSKLMNRSIDSLLGL” to “HMEIFYGDDRVYTVSLHGQNNFPFRKKTSDFDYGFEDGTGDEEYLRVLDVTLSRLENEQFDLLFFQAGV”, the “soluble fraction (log2)” value rises from -2.64 to -0.068.

Going from “HMEIFYSARAWAKLNDLVATRTYLQHLGAIAGRIGRSEGLSPDRIPDGRDGAVNGWPLWVWDRAYAEVS” to “HMEIGLIRVDSRLIHGQVITKWLNYSKANVIVVVDDELSKDSFMSEIYKASAPNGIIVEILSIDDFMKNT”, the “soluble fraction (log2)” value rises from -2.82 to -0.0469.

Compared with “HMEIHIGSLIKEKMEERGLSVSDFAHALHYERTNIYKIFKRSSIDVDLLLRISEVLAYDFLREVYL”, “HMEINKLIELIGGYKALSEVLNVSKSAISNYKKRGSLPSYAIPIIVKELKSKGISIDLSEFT” is higher in “soluble fraction (log2)” value: -2.4 for the first, -0.837 for the second.

Compared with “HMEISAIIGNNLQQLRKEQGLSLDQLALKTGVSKAVLSQLENGKANPTINTIWKIATALHVTYSALLEPP”, “HMEISEILNPPLVTAMAERYPEVDVSYYRDKYILYYESREHKITDHRRNFEKWLLVESQKEEN” is higher in “soluble fraction (log2)” value: -1.15 for the first, -0.861 for the second.

Compared with “HMEISTENESFSNGLLEHPHYTRPPVWEDLKIPAVLMSGHHGKVAEWRKQQSEALTQERRPDLWEAFG”, “HMEITSSNELKKMISNLINSENKNNPISDSNIVEKLKENDFLVARRTVAKYRKLLGIKNVNQRKE” is lower in “soluble fraction (log2)” value: -0.14 for the first, -0.359 for the second.

First: HMEIYELTDQEQRVLEFIGEGMTNREIAKNMFLAEKTVKNYVSSLLRKLGLERRTQAAAMAVRLSV
Second: HMEKAYVWTDTRTFDVQNYIGKKKSEVKNDQYGFEFLGEGDYVIDQLPRVGEQIEEGQKVKIMLGNQQEI
The “soluble fraction (log2)” value of the first is lower: -0.119 for the first, 0.178 for the second.

Compared with “HMEKDKGTILKEARIKKGLTQEQLANNINYTRQYISKWENNISLPKDIQTLKKISNLLSIPLKELLPEDYL”, “HMEKEFLFNGGKVVMNYEADRIQIMHDTKPGQDVITLMKKNGFKWSPFNKAWQRQITANAIYTTKHLINQ” is lower in “soluble fraction (log2)” value: -0.442 for the first, -1.71 for the second.

Compared with “HMEKGIVSNKTDKGYGFIRSSTGESIFVHINNVGKEAYEQLAKGSRVLFDYEVTDRGKRATKVMLEPSES”, “HMEKGLQYRRTDRAIMNAFIKLVNQGSFEKLTVQEILDEALVSRNTFYAHYRDIYDLMDALSN” is lower in “soluble fraction (log2)” value: -0.196 for the first, -1.52 for the second.

Compared with “HMEKIDEDIMDVLKKKAEVSGISLGVLKSIYEKAVKQYKLGHEIGQVKEQYAMQKVNTHLLENK”, “HMEKIDYLSIGHRLRAYRIASSLKAEDVAESLGISRAAVYRLEKGEIVKIETLDNLARLLNTSLSSLLG” is lower in “soluble fraction (log2)” value: 0.461 for the first, -3.37 for the second.

Going from “HMEKIKNLTVTEFNLIANKNPSGSYDRITREALLHIIHKLESSYEAHTDLERKLFYKFRKAKFNAL” to “HMEKIYLISDAAKQVNVEAHVLRYWEEELDIPAKRNELGHRYYTQEDIETFRKVKELKAQGIQLKGIKNIL”, the “soluble fraction (log2)” value rises from -2.87 to -0.225.

Compared with “HMEKLLTTRQSQIFELAKRKGYWNIPREISITQLAQLTGSSKSTISVMLHAIESKIVDTFYDEI”, “HMEKLNERLLYLRKNANLTQQQLADKLHISNKTISQWETGRTLPDIVMLVRLAEIYDMKLDELLNQ” is higher in “soluble fraction (log2)” value: -3.05 for the first, -1.1 for the second.

Going from “HMEKMLENIDLKAAVEALPEREKKVILLRYYRGMTQDAAAKVMKVSQVQISRIEKRAIEILREKL” to “HMEKNKERIAFLKKRLEMYYEAEEKILQGQSYTIGSRTLTRTSLANVQSKIKELESEISALETRGN”, the “soluble fraction (log2)” value rises from -2.54 to -1.5.

Compared with “HMEKRIIMLEELKKQVYEANMELPRRGLITYTWGNVSGIDRESGNFVIKPSGVDYDKLKPEDMVVMDL”, “HMEKRRQEIVELVKRESEISFAELKQHFPEVSEVTLRKDLKYLDSTLQIIRIHGGAKSLPAAI” is lower in “soluble fraction (log2)” value: 0.249 for the first, -0.965 for the second.

Going from “HMEKTTTLFDETTNPGIIYIGKAMPTGSAISEAAAVWAIKTIDTTTDTEIKWADGVTTYTKVWNNRASYSY” to “HMEKVDAISQSILDVLKKNNGYLAVTDKSDPDEIYGLFQISKKTFKKAIGSLYRDRLISIEEEGIRLR”, the “soluble fraction (log2)” value rises from -0.872 to -0.496.

“HMEKVTAPMPGVINSIVKNVGDTVKRGDVVLILEAMKMENEIVAPKEGKIASINVAKGASVNAGDVLFSI” and “HMEKVTPEMIAEYNALAKKYNSNPEVVFKKKEIQRLKYIYSLMSEKQKETAEVFPNIPPPPPT” are within 0.2 log units of each other in “soluble fraction (log2)” value: 0.347 for the first, 0.162 for the second.

Compared with “HMEKYNIIVDNEDNFRLDKIIALNMKDLSRTMIQEMINRGLVSVNGKITKASYKTKLNDQIEIMIED”, “HMELAALKILNSPIGKIAIGTSENGLVKLDILTSGQTRAEFSDLPKAHKLALDAADQLAAYF” is higher in “soluble fraction (log2)” value: -0.599 for the first, 0.147 for the second.

Going from “HMELADNFAKLILTARESKGWTQAQLGQRMAETINVIKSAESGKPPADSVIRKFEMILGIELM” to “HMELDFLRLQIITGIHSGRLSNNEILMMYDTYSQKGGNSYVSRIVNDYVDENNIKEEGKRNARK”, the “soluble fraction (log2)” value rises from -2.06 to -1.5.

Going from “HMELDREALSDGLRRLSQLLAEDDIESRTLFRELAPGLKEQLGDDAVEKLAGHISRYEFEQAGALLATSG” to “HMELIELTVTEEFEMARLDQFLAGHLTQSRTYIQKLIKAGQITINGNLITRVKVPVHYGDFILINIPDPE”, the “soluble fraction (log2)” value falls from -0.0504 to -3.68.

Compared with “HMELKFIGEAVNNPKRPLIAILGGAKVSDKIGVIENLLTKADKILIGGAMMFTFLKAEGKNIGTSLVED”, “HMELLEVSVIIREADSTGWSAARQGMEQAAADLGAELRFLTLSQSNSAEEQRSLLAREVEGGADAVVLV” is lower in “soluble fraction (log2)” value: 0.0754 for the first, -0.57 for the second.

First: HMELNEMEAWSLVSKALRNGTYGAVEEFSRLPPTVQEAVGNPDNLRNWATSDYKAIETVIQSNFIKTY
Second: HMELNILELKSKERKISLEDHLYIKSFNFDNETNEYFYRLAFNSSKDLKNFKATINNDKTISIINFEI
The “soluble fraction (log2)” value of the first is higher: -0.0842 for the first, -3.67 for the second.

Compared with “HMELPVNSIRVPDVVGLSLREAMQAMTDAGVPWQSVQAKGVGFVSRQSPEAGTVTQLRRVRLELKLF”, “HMELSPVDLGERLKIARETANFTQDAAAKAVGIARTTLVSIEKGQRTARLDEIQALSRFYGVSANALLR” is higher in “soluble fraction (log2)” value: -2.8 for the first, -1.16 for the second.

Going from “HMELTDRQKQIIEIVKKQQPISGEKIASILGFARATLRPDFSLLTMSGILQAKPKVGYLINEE” to “HMELVEVGDLTGLTVEQAENVLKNSNISISIDKYDESDKYEKDQIISQNPQNKKVKKGTAIHVVLSNGP”, the “soluble fraction (log2)” value rises from -0.63 to 0.527.

Going from “HMEMKMGHIISKLRYESGYSQVELAEKIGITKGAVGMYETDKRKPDYDTLIKLADLFNVSTDYLLS” to “HMEMNDFETLRDMYLTGKIWNVGDIVEANGVRGKVIRKGTNYLSFVDEDNKVHKAWLYDIEE”, the “soluble fraction (log2)” value rises from -0.378 to 0.291.

Going from “HMEMSLGEKLKQARLTKNFSQEYMAEVLQISQKTYSNFENNKTKPDFSQIEEISKVLETSILEFLT” to “HMEMTGAHLRKKIRAKGFTFQQIADAIGESKQNLSQILSTNNIKTGTLERIAAAMGESVSYF”, the “soluble fraction (log2)” value rises from -1.12 to -0.00766.

First: HMENDYTQAQFVQDLDSGVVREVIIIPNREAPTGYARVVFGDVVRELYATDIREVEALAREHGYEPTVED
Second: HMENFDNIFDQRLMPSLFIIRNINQAIENNNNNKFLLNSTISMKDKHWIEIHPHHLKLIISGYQT
The “soluble fraction (log2)” value of the first is higher: 0.343 for the first, -0.328 for the second.

Compared with “HMENIEVDFGVGDTVSVIGGAWKDTVGVVQAMNPNKQSLTINVELFGRETPVEISFTDVQKM”, “HMENINIRNMGIRAVEAAIISLSPDQRTFTWGATNKKLVTVPYEENPYSALAAFFKTDDGIEIYDAIEKRL” is lower in “soluble fraction (log2)” value: -0.166 for the first, -1.08 for the second.

Compared with “HMENNNIAFSKFLEEVDSGRVVQVEIQGNNISGTLSDGSKFKTYSPNYPDLVSKLSEKNVSIIASPV”, “HMENPLVEVVVPVLNEERILKANIETLHHFLRTQPGFNFRITIADNGSTDKTQAIANDLTNSHAVIRV” is lower in “soluble fraction (log2)” value: 0.343 for the first, -0.151 for the second.

Compared with “HMENPMIEQLKQFIEAQGLTQGQLAAKLGVSTATVNQYLQGKYKGDTAALDAKAAQLMARSREK”, “HMENRILIPTAENIGERLDRYISSELDAPRSQVQIWIDSGLVAVSGGLKPKNYRLREGDEIEVTIPDPV” is lower in “soluble fraction (log2)” value: 0.169 for the first, -0.11 for the second.

“HMENRLREVRDEIATRHGILPTVFINDRVLMNIHSKKPKDVSQLWQVDGISDEFIMKYGPEFIAEYKKKAK” and “HMENRREYQKAIDYLSDQIRAGTLTVGSRLPTERAIAEALGISRNSTREALRTMENMGMIESKQGSGHYLT” are within 0.2 log units of each other in “soluble fraction (log2)” value: -0.119 for the first, -0.215 for the second.

First: HMENTELIELRKKRNLSQSQLAELLDLTRNQIANYESGRRIPDQETKQIIAGFFEMPAEEIFAG
Second: HMENTFNENLRRIRKEKKITQEQLAEFVGVSPQAVSKWEMNSFPDASLLPKIAEKLEVSIDELFGLK
The “soluble fraction (log2)” value of the first is lower: -0.086 for the first, 0.205 for the second.

Going from “HMENTVVMPNLLGKTMTEAKIELKDLSISITLKGSENSSQYAAGQIISQSVDSGTRVAVGSSVEVTIAGS” to “HMENVIYGINGPVVTVRNSRSFSMMEMVFVGNERLVGEVIGITDKITTIQVYEETTGLRPGEPVYGTGSPM”, the “soluble fraction (log2)” value falls from -0.843 to -3.8.

Compared with “HMENVRKTEWVTISNDKSQTRTTVYFESGNQKLDKHPQIQGFEYQRTYVEGGVKYYLFVEKGTKLDE”, “HMENYGEAITYIHGMIEDSSEKMLAASKALKVNANTLIKFMKDPYSVAAHIRDRIVENLANLEKAVKAI” is lower in “soluble fraction (log2)” value: 0.0189 for the first, -0.254 for the second.

With “HMENYYMPVVAGQSEQDAKSMLNAMKLSLSIQVQEQESDSVAKGLAIGTSPAAGSQIRKGSSVILYISKGA” the “soluble fraction (log2)” value was -0.844.
